Source: paper PMC12788653 (PLOS Pathogens, 2025)

Biological target: the molecule itself
Assay: SEC

B1: recombinant A/WSN/1933 (H1N1) NP, NΔ7NP with C-terminal His tag (WT) (natural protein)
chain: RSYEQMETDGERQNATEIRASVGKMIGGIGRFYIQMCTELKLSDYEGRLIQNSLTIERMVLSAFDERRNKYLEEHPSAGKDPKKTGGPIYRRVDGKWMRELILYDKEEIRRIWRQANNGDDATAGLTHMMIWHSNLNDATYQRTRALVRTGMDPRMCSLMQGSTLPRRSGAAGAAVKGVGTMVMELIRMIKRGINDRNFWRGENGRRTRIAYERMCNILKGKFQTAAQRAMVDQVRESRNPGNAEFEDLIFLARSALILRGSVAHKSCLPACVYGPAVASGYDFEREGYSLVGIDPFRLLQNSQVYSLIRPNENPAHKSQLVWMACHSAAFEDLRVSSFIRGTKVVPRGKLSTRGVQIASNENMETMESSTLELRSRYWAIRTRSGGNTNQQRASSGQISIQPTFSVQRNLPFDRPTIMAAFTGNTEGRTSDMRTEIIRLMESARPEDVSFQGRGVFELSDEKAASPIVPSFDMSNEGSYFFGDNAEEYDN
notes: also called WT NP; pET28a-NΔ7NP
binding result: binds
